Paper doi:10.1101/2025.09.18.675241 (bioRxiv, 2025)
Residue numbers refer to the chain shown, from its start. Names and notes keep the numbering of the source.

What was measured:
FAM171A2 Ecto-AP (human) = FAM171A2 Ecto-AP (human) (UniProt A8MVW0); test: ELISA
[1] = target: FAM171A2 ectodomain (K30-T315), Fc cleaved off (human) (UniProt A8MVW0); test: SEC-MALS
[2] = target: FAM171A2 ectodomain (K30-T315), Fc cleaved off (human) (UniProt A8MVW0); test: AUC
[3] = target: FAM171A2 ectodomain (K30-T315), Fc cleaved off (human) (UniProt A8MVW0); test: SEC-SAXS
AUC [4] = target: the molecule itself; test: AUC
SEC-MALS = target: the molecule itself; test: SEC-MALS
AUC [5] = target: the molecule itself; test: AUC; remark: listed apart in the source
SEC = target: the molecule itself; test: SEC
FAM171A1 Ecto-AP = target: T1, FAM171A1 Ecto-AP (human, UniProt Q5VUB5 23-303); test: ELISA
T1 sequence: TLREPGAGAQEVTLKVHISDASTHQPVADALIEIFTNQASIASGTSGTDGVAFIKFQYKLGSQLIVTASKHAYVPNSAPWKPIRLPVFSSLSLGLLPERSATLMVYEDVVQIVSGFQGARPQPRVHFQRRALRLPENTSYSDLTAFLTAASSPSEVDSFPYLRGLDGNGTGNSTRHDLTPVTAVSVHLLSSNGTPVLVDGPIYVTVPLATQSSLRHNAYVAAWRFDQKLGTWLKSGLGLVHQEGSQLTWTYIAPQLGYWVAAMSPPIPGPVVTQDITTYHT

FAM171A2 Ecto-Fc (from UniProt A8MVW0 30-315) (Fc fusion)
Kd (FAM171A2 Ecto-AP (human)): 389 nM

FAM171A2 ectodomain (K30-T315), Fc cleaved off (from UniProt A8MVW0 30-315) (domain or fragment)
stoichiometry N [1]: 3
percent of the mixture as trimer [2]: 75%
stoichiometry N [2]: 3
stoichiometry N [3]: 3

B1: FAM171A1 ectodomain (T23-T303), Fc cleaved off (domain or fragment)
chain: T1 sequence
modifications: four N-linked glycosylation sites occupied by Man5GlcNAc2 (from HEK293S GnTI- cells)
stoichiometry N (AUC [4]): 2.7 monomers
stoichiometry N (SEC-MALS): 3
stoichiometry N (AUC [5]): 2.6 monomers

B2: FAM171A1 ectodomain L255N (domain or fragment)
chain: T1 sequence with L233N
modifications: introduced N-linked glycosylation site
stoichiometry N (SEC): 3

B3: FAM171A1 ectodomain Y241S/L255N (domain or fragment)
chain: T1 sequence with Y219S, L233N
modifications: two introduced N-linked glycosylation sites
stoichiometry N (SEC): 3

B4: FAM171A1 ectodomain Y241S (domain or fragment)
chain: T1 sequence with Y219S
modifications: introduced N-linked glycosylation site
stoichiometry N (SEC): 3

B5: FAM171A1 Ecto-Fc (Fc fusion)
chain: T1 sequence
Kd (FAM171A1 Ecto-AP): 9 ± 2 nM
